Here are results for three molecules from patent US20090130120A1 (published 2009).

Assay [1] concerns the target F protein on live RSV virus (strain not stated) (respiratory syncytial virus (RSV)). Kind of assay: cell-based or functional assay.
Assay [2] has as its target T1, RSV G protein of group A strain (Ga protein) (respiratory syncytial virus (RSV), …, UniProt P03423 1-298).
T1 construct: also called RSV-Ga; RSV-GA2 protein
T1 sequence: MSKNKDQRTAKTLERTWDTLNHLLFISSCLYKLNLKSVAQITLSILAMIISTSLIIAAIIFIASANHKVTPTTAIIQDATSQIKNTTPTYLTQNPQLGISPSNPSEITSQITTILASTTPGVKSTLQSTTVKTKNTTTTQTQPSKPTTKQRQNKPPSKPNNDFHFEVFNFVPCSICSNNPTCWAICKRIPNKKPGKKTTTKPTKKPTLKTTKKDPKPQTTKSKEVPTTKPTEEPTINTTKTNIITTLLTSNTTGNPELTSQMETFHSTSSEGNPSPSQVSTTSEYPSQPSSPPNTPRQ
Kind of assay: Biacore, antibody on chip, recombinant Ga in flow. In general terms: In SPR one partner is held on a chip, and binding of the other changes the refractive index at the surface.

For assay [3], the target named is T2, 12-mer Ga derived peptide HFEVFNFVPCSI
T2 construct: also called (169) HFEVFNFVPCSI (176)
T2 peptide: HFEVFNFVPCSI
Kind of assay: array of overlapping 12-mer peptides, 1 ug/ml antibody, chemiluminescence.

With Synagis® (palivizumab) (antibody), in assay [1], the IC50, plaque assay for neutralization of RSV on HEp2 cells with rabbit complement is 0.3 µg/mL and the affinity according to the plaque neutralization assay came out at 2 nM.

B1: 10C6 (antibody, V domains shown)
VH: QVQLVESGGGVVQPGRSLRLSCEASGFTFSGYAMHWVRQAPAKGLEWVAVISFDGSNNYYADSVKGRFTISRDNSKNMLFLQMNSLRAEDTAVYYCVRPDVIAVAGTALSNPFDLWGLGTMVTVSS
VL: EIVMTQSPATLSVSPGERALSCRASQSVRSNLVWYQQKPGQAPRLLIFGASTRATGIPARFSGSGSGTEFTLTISSLQSEDFALYFCQQNNNWPPTFGQGTRLEIK
For B1, the Kd (commonly a measure of binding affinity in units of concentration) in assay [2] is 0.055 nM.

B2: murine monoclonal antibody 131-2G (antibody, V domains shown)
VH: EVQLQQSGPELVKPGTSVKISCKASGYSFTGFTMNWVKQSHGKNLEWFGLINPFNGNTGYNQKFKGKATLTVDKSSSTAFMELLSLTSEDSAVYYCARSGKSYDYEAWFTYWGQGTLVTVSA
VL: DIVMTQTTLSLPVSLGNQASISCRSSQTIVHTNGNTYLEWYLQKPGQSPKLLIYKVSNRFSGVPDRFSGSGSGTDFILNISRVEAEDLGVYYCFQGSHVPFTFGSGTKLEIKR
notes: Only variable regions are printed
With B2, the binding result in assay [3] is “binds”.
